# T1: EV-D68 capsid protein VP2 (strain STL-2014-12) (Enterovirus D68, STL-2014-12 (KM881710), strain)
# T1 chain: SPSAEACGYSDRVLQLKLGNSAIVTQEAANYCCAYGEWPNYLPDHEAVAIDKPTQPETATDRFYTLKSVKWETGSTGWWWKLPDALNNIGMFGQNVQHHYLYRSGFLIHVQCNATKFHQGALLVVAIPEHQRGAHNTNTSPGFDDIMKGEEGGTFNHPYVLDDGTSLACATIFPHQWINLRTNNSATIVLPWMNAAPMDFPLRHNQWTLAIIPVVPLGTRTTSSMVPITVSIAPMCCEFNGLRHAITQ
# T2: EV-D68 capsid protein VP3 (strain STL-2014-12) (Enterovirus D68, STL-2014-12 (KM881710), strain)
# T2 chain: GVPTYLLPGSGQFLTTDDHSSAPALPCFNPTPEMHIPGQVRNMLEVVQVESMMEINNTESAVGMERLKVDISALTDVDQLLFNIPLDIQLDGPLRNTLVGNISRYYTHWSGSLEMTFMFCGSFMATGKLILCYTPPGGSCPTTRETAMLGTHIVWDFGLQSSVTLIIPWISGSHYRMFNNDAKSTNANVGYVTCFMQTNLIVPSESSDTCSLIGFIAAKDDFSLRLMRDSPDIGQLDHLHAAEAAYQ
# T3: EV-D68 capsid protein VP1 (strain STL-2014-12) (Enterovirus D68, STL-2014-12 (KM881710), strain)
# T3 chain: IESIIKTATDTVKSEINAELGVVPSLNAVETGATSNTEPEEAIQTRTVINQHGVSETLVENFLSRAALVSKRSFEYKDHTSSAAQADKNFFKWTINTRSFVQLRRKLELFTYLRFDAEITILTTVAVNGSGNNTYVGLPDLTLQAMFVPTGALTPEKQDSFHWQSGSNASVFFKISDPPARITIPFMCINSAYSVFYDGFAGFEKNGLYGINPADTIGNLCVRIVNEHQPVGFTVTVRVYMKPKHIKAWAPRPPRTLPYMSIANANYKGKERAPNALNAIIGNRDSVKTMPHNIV
# B1: Fab 15C5 (Fab, V domains shown)
# VH: QVQLQQSGTELAKPGASVKMSCKASGYTFTNYWMHWFKQRPGQGLEWIGYVNPNTDYTDYNHKFKDKATLTADKSSSTAYMQLSSLTSEDSAVYFCARGTFGNYASFAYWGQGTLV
# VL: DIQMIQSPSSMFASLGDRVSLSCRASQDIRGNLDWYQQKPGGTIKLLIYSTSNLNSGVPSRFSGSGSGSDYSLTISSLESEDFADYYCLQRNAYPLTFGGGTKLEIK
# B2: monoclonal antibody 15C5 (antibody, V domains shown)
# VH: B1 VH
# VL: B1 VL
# B3: Fab 11G1 (Fab, V domains shown)
# VH: QVQLQQSGAELVRPGVSVKISCKGSGYIFTDYVMHWVKQSHSKSLEWIGVISTYYGDGSYNQKFKGKATMTVDKSSSTAYMELARLTSEDSAIYYCVRGENYYGVSGTMDYWGQGTSVTVSS
# VL: DIVMSQSPSSLAVSVGEKVTMSCKSSQSLLYSNNQKNYLAWYQQKPGQSPQLLIYWASTRESGVPDRFTGSESGTDFTLTISSVKAEDLAVFYCQQYYNYPWTFGGGTKLEIK
# Tests used:
# [1] = target: EV-D68 A-particle (strain STL-2014-12) (Enterovirus D68, STL-2014-12 (KM881710), strain); assay: cryo-EM structure
# [2] = target: T1, EV-D68 capsid protein VP2 (strain …); assay: cryo-EM structure
# [3] = target: T2, EV-D68 capsid protein VP3 (strain …); assay: cryo-EM structure
# [4] = target: T4, EV-D68 procapsid (strain STL-2014-12) (Enterovirus D68, STL-2014-12 (KM881710), UniProt A0A097F8Q2;PDB, strain); assay: cryoEM with 2D classification
# [5] = target: T4, EV-D68 procapsid (strain STL-2014-12); assay: ELISA
# [6] = target: T3, EV-D68 capsid protein VP1 (strain …); assay: cryo-EM structure
Binder,stoichiometry N [1] [copies per particle],binding result [2],binding result [3],binding result [4],binding result [5],binding result [6]
B1,60,binds,binds,binds,,
B2,,,,,binds,
B3,60,,,,,binds

# — PMC6727974 (Nature microbiology, 2018)
